Measurements from paper doi:10.64898/2025.12.16.693247 (2025).

Key:
RIPR-Tail (D717 - N1086) [1] = target: T1, RIPR-Tail (D717 - N1086) (P. falciparum, UniProt O97302 717-1086, N964Q | N1021Q); assay: SPR; RIPR-Tail immobilised, steady state
RIPR-Tail (D717 - N1086) [2] = target: T1, RIPR-Tail (D717 - N1086); assay: SPR; PTRAMP-CSS immobilised, steady state
RIPR EGF 7+ = assay: SPR
RIPR EGF 6+ = assay: SPR
RIPR EGF 8+ = assay: SPR
[3] = target: T2, full-length RIPR (RH5-interacting protein) (P. falciparum, UniProt O97302 20-1086); assay: BLI; 2:1 heterogeneous ligand fit, KD1
[4] = target: RIPR EGF 9+ (L898 - N1086) (P. falciparum, UniProt O97302 898-1086, N964Q | N1021Q); assay: SPR
[5] = target: T2, full-length RIPR (RH5-interacting …); assay: BLI; 2:1 heterogeneous ligand fit, KD2 (second site)
[6] = target: mono-biotinylated RIPR-Tail (P. falciparum, UniProt O97302 717-1086, N964Q | N1021Q, biotin on the BAP tag (mono-biotinylated by co-transfected BirA)); assay: SPR

Row | Binder | Kd (RIPR-Tail (D717 - N1086) [1]) [µM] | Kd (RIPR-Tail (D717 - N1086) [2]) [µM] | Kd (RIPR EGF 7+) [µM] | Kd (RIPR EGF 6+) [µM] | Kd (RIPR EGF 8+) [µM] | Kd [3] [µM] | Kd [4] [µM] | Kd [5] [µM] | Kd [6] [µM]
1 | PTRAMP-CSS heterodimer (complex) chain 1: CNLKVRNNWEHFLQVYQNNGNFKMEILEPECTIQKNLPSEEEKEEFIDFDRKELLLHDFVVIKNSQFTDEKTLELYLSKEENNKSYLMLTFYLGDLKLMIGHNSPYEISLILNVATVNKNMSNCKNNSYNIVLLKTTDVFNTSDLEILEGPIQFSLGKSSGAFRINVTNFFLNNTWKAFTKDKISFLIKPEENCYTILENKINKPQLLIEKKTTFYSEWGEWSNCSMDCDHPDNVQIRERECIHPSGDCFKGDLKESRPCIIPLPPCNELFSHKDNST chain 2: QDEKSVKNICVCDFTDKLNFLPLEKTKILCELKPQYGEDIKIIANKEYEINCMNNSKVFCPLKDTFINNTNIKLYSPKLHFEIKDITHKGKNAALYYLKIDEEASDIFFSCSIKPKQVSGLLEGEVRVNLKKHINEEYSIFNEEEDVHVCDFSKGNLDITPSAGFYLKNSRNVSCIYRVIPNKLFLIKLPKLDIVTEKLLPSIVNCLSEFSFINFTLKHVQEGDNYISFNVIFGEFKKHFNLTCSLDLSDFQQEPCNLGKTANITFIFSK | 5.69 | 6.23 | 2.35 | 5.15 | 3.55 | 0.00113 | 6.44 | 0.176 | –
2 | CSS (cysteine-rich small secreted protein), residues Q21-K290 (natural protein) QDEKSVKNICVCDFTDKLNFLPLEKTKILCELKPQYGEDIKIIANKEYEINCMNNSKVFCPLKDTFINNTNIKLYSPKLHFEIKDITHKGKNAALYYLKIDEEASDIFFSCSIKPKQVSGLLEGEVRVNLKKHINEEYSIFNEEEDVHVCDFSKGNLDITPSAGFYLKNSRNVSCIYRVIPNKLFLIKLPKLDIVTEKLLPSIVNCLSEFSFINFTLKHVQEGDNYISFNVIFGEFKKHFNLTCSLDLSDFQQEPCNLGKTANITFIFSK | – | – | – | – | – | – | – | – | 0.95
